Measurements: IntAct's records for PubMed 31515488

B1: Hematopoietic prostaglandin D synthase (Homo sapiens), O60760 (parent)
chain: MPNYKLTYFNMRGRAEIIRYIFAYLDIQYEDHRIEQADWPEIKSTLPFGKIPILEVDGLTLHQSLAIARYLTKNTDLAGNTEMEQCHVDAIVDTLDDFMSCFPWAEKKQDVKEQMFNELLTYNAPHLMQDLDTYLGGREWLIGNSVTWADFYWEICSTTLLVFKPDLLDNHPRLVTLRKKVQAIPAVANWIKRRPQTKL
partner: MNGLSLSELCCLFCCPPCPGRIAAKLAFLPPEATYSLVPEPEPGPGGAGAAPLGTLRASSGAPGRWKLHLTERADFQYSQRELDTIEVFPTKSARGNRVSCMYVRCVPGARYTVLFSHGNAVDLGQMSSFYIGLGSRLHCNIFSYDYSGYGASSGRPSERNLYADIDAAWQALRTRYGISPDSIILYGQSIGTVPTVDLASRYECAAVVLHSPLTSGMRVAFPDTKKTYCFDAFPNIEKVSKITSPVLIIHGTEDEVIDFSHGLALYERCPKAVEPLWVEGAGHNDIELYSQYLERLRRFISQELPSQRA
B2: Notch homolog 2 N-terminal-like protein A (Homo sapiens), Q7Z3S9 (parent)
chain: MCVTYHNGTGYCKCPEGFLGEYCQHRDPCEKNRCQNGGTCVAQAMLGKATCRCASGFTGEDCQYSTSHPCFVSRPCLNGGTCHMLSRDTYECTCQVGFTGKECQWTDACLSHPCANGSTCTTVANQFSCKCLTGFTGQKCETDVNECDIPGHCQHGGTCLNLPGSYQCQCLQGFTGQYCDSLYVPCAPSPCVNGGTCRQTGDFTFECNCLPETVRRGTELWERDREVWNGKEHDEN
partner: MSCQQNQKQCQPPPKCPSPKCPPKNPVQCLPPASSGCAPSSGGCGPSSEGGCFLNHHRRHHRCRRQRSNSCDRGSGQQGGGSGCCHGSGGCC
B3: "Peptide-N(4)-(N-acetyl-beta-glucosaminyl)asparagine amidase" (Homo sapiens), Q96IV0 (parent)
chain: MAAAALGSSSGSASPAVAELCQNTPETFLEASKLLLTYADNILRNPNDEKYRSIRIGNTAFSTRLLPVRGAVECLFEMGFEEGETHLIFPKKASVEQLQKIRDLIAIERSSRLDGSNKSHKVKSSQQPAASTQLPTTPSSNPSGLNQHTRNRQGQSSDPPSASTVAADSAILEVLQSNIQHVLVYENPALQEKALACIPVQELKRKSQEKLSRARKLDKGINISDEDFLLLELLHWFKEEFFHWVNNVLCSKCGGQTRSRDRSLLPSDDELKWGAKEVEDHYCDACQFSNRFPRYNNPEKLLETRCGRCGEWANCFTLCCRAVGFEARYVWDYTDHVWTEVYSPSQQRWLHCDACEDVCDKPLLYEIGWGKKLSYVIAFSKDEVVDVTWRYSCKHEEVIARRTKVKEALLRDTINGLNKQRQLFLSENRRKELLQRIIVELVEFISPKTPKPGELGGRISGSVAWRVARGEMGLQRKETLFIPCENEKISKQLHLCYNIVKDRYVRVSNNNQTISGWENGVWKMESIFRKVETDWHMVYLARKEGSSFAYISWKFECGSVGLKVDSISIRTSSQTFQTGTVEWKLRSDTAQVELTGDNSLHSYADFSGATEVILEAELSRGDGDVAWQHTQLFRQSLNDHEENCLEIIIKFSDL
partner: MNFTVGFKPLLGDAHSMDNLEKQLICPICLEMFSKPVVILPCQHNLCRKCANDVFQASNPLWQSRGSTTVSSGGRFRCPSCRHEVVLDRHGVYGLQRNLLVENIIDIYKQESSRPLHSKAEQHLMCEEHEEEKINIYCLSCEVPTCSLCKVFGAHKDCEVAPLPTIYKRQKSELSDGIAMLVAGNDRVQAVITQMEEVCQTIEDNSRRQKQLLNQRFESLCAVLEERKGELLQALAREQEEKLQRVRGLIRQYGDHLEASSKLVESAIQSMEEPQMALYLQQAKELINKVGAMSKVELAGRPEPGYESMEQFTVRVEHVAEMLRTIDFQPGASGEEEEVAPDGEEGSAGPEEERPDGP
B4: Syntenin-2 (Homo sapiens), Q9H190 (parent)
chain: MSSLYPSLEDLKVDQAIQAQVRASPKMPALPVQATAISPPPVLYPNLAELENYMGLSLSSQEVQESLLQIPEGDSTAVSGPGPGQMVAPVTGYSLGVRRAEIKPGVREIHLCKDERGKTGLRLRKVDQGLFVQLVQANTPASLVGLRFGDQLLQIDGRDCAGWSSHKAHQVVKKASGDKIVVVVRDRPFQRTVTMHKDSMGHVGFVIKKGKIVSLVKGSSAARNGLLTNHYVCEVDGQNVIGLKDKKIMEILATAGNVVTLTIIPSVIYEHMVKKLPPVLLHHTMDHSIPDA
partner: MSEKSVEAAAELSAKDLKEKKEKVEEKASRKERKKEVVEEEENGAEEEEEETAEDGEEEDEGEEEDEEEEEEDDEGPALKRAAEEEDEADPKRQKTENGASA

Variants of: B1
Conditions: with ab17a_human ABHD17A

effect of a mutation on the interaction	Variant
disrupting interaction strength	M128T

Variants of: B2
Conditions: with lce3e_human LCE3E

effect of a mutation on the interaction	Variant
with no effect	A115T
with no effect	R74Q

Variants of: B3
Conditions: with tri54_human TRIM54, Q9BYV2

effect of a mutation on the interaction	Variant
with no effect	F292L
with no effect	V184F

Variants of: B4
Conditions: with ptms_human PTMS

effect of a mutation on the interaction	Variant
disrupting interaction strength	R223C
